Experimental data from the DeepSol protein solubility set.

Test: soluble on expression in E. coli; label from the status in PepcDB or PDB records

Sequence	soluble on expression in E. coli
MSLDFSEPLLGFEPRDTEIGRRLEVWKAMQALTGPKNLLSLSPDPEMNSSSLLSTLSPAAWGRAEESVVRTKRMVGPVEVKEEENFFCGRPEKSHAKLVFVSTSGGSLWNLQAIHSMCRIEQEQIRSHISFGALCQRSAANECCPSWSLGNYLAVLSNRSSCQDTTQADTDRTLALLRFCATFYHRGVLVPACVGSSQDKPPFCAQVPAKCTGSNVVYEFLHYLLDRDFLSPQTADYQVPSLKFALLFLPIIKTSSLLDIYLDGLGDPIKVSDNYTSISGMDLGLKPRLLKYYLAEDTEGHHHHHH	not soluble
QIGELKTTVGNSTIKVNDEVQVGSAFEAILGIEGLNGDTEVYSAEYLFEYNAEAFILNEITSFNDSLFVKSKEVEPGKVRILVASLGNEIEKDSDLVKVNLTPKISSELEVLGLTTALVGAGDGNTHDLELSSKEVKINEEAS	soluble
MYLVCGEALFDVFSLESAARSNELGFTAIAGGSPFNVAVGLRRLGVEAALFGGLSSDYLGARLRRVLEEEGVDCGFLVPSDAPTTLAMVGLDASGSAQYQFRGEGCADRQVRLEHLPTLDGRIRGLHVGSYTLVVTPVADTLLALVRRESGRRLVSLDPNVRLDPQPDIDLWRRRVEAFASHAHLIKASEEDLALLYPGRDPGEVARGWLNPRCRLVFVTHGGAGASVHCTHGSWSRPADTALPLRDTVGAGDTFQAATLAYLRRLDADSPAGLAALSREAIDAMLAFAIRAAAVTCSRVGPDLPFAHEL	not soluble
GMSLPHLSSGEVASVLPLGKQLTQTPSAALFKEHRLEVMRMVLPAGKQVGSHSVAGPSTIQCLEGEVEIGVDGAQRRLHQGDLLYLGAGAAHDVNAITNTSLLVTVVLVDRGGS	soluble
LNKWMKELSKTTSLDPVKPVDVLLTENDITIKNIRDMNRLRPFGTDFSRPIFEMDDLSVSSVKAIGQQKNHLKLTLGESNIAALFWQNGHLEPELQDEQPINILGSVQINEWNGNQSPQ	not soluble
MDAQYDISFADVEKAHINIRDSIHLTPVLTSSILNQLTGRNLFFKCELFQKTGSFKIRGALNAVRSLVPDALERKPKAVVTHSSGNHGQALTYAAKLEGIPAYIVVPQTAPDCKKLAIQAYGASIVYCEPSDESRENVAKRVTEETEGIMVHPNQEPAVIAGQGTIALEVLNQVPLVDALVVPVGGGGMLAGIAITVKALKPSVKVYAAEPSNADDCYQSKLKGKLMPNLYPPETIADGVKSSIGLNTWPIIRDLVDDIFTVTEDEIKCATQLVWERMKLLIEPTAGVGVAAVLSQHFQTVSPEVKNICIVLSGGNVDLTSSITWVKQAERPASYQSVSVHHHHHH	soluble
MSLIYGFIRDHSNEFAVEKMCQVLNVSRSGYYSWLNRKPGKRELTNKKLKLKIAEIYWQTRGRCGSPRIHKQLKKEGYHYNIKRIERLMRIMGLKAIQKRKFKRTTNSDNNLPLKNNLLKRNFSVTQPDKVWVSDITYIPTKEGWLYLSVVIDLYSRKVVGWSMDNHMTKRLVIDALEMAVLNRNPSRGLIFHSDRGSQYASHDFQKTLWKYGIISSMSRKGDCWDNAVAESFFATLKTELIFHNKYQSRAQAKRDIFEYIEIFYNRIRLHSSLDYKSPEDYEKERKTSKEGHHHHHH	not soluble
MNILQEPIDFLKKEELKNIDLSQMSKKERYKIWKRIPKCELHCHLDLCFSADFFVSCIRKYNLQPNLSDEEVLDYYLFAKGGKSLGEFVEKAIKVADIFHDYEVIEDLAKHAVFNKYKEGVVLMEFRYSPTFVAFKYNLDIELIHQAIVKGIKEVVELLDHKIHVALMCIGDTGHEAANIKASADFCLKHKADFVGFDHGGHEVDLKEYKEIFDYVRESGVPLSVHAGEDVTLPNLNTLYSAIQVLKVERIGHGIRVAESQELIDMVKEKNILLEVCPISNVLLKNAKSMDTHPIRQLYDAGVKVSVNSDDPGMFLTNINDDYEELYTHLNFTLEDFMKMNEWALEKSFMDSNIKDKIKNLYFKGEFEAYV	soluble
MDNFENLSTKDSFPEHFRRAVRGIFPDSQLPDEFFLVVYRDGKFERSLQPTATFAGRKAPVVIIPQWKEKHTLEIGNYRKVVDEEFYQIGGKMIYAGRDIFIEDVPGLYRNIDMVFLDGEKECIYRDGFLMMEEKILKIEEPVDVVDGIVITRHRMGSKEIDDTILFRWNNFVLTASGFLVDIKGKWSWKVSNAPVEFSFQGDIFYVLDVCGFLRSYNLKTRQLLWEKKFEGAWGLDSSKDRVFLGAGDEVLVLNAQDGETIERMEADDFAVWKGRLLVYKDGKVDGEDMEGFFIRNFGMPLFVSGKRVVMFGTEKKEFEEVEKVRLFDWGTVIKAGDELWLIRRD	not soluble
AHHHHHHGSALSDKLDLVNPSEIRKLFDLAAGMKDVISLGIGEPDFDTPAHIKEYAKEGLDKGLTHYGPNVGLPELREAIAEKLKKQNGIEADPNSEIMVLVGANQAFLMSLATFLKDGEEVLIPSPMFVSYAPAVILAGGKPVEVPTYEDNEFRINVDDLKKHVSEKTRALIINSPNNPTGAVLTKKDLEEIADFANEHDLMIISDEVYEHFIYDGAKHYSIAALDGMFGRTITVNGFSKTFAMTGWRLGFVVAPSWVIEKMVKFQMYNATCPVTFIQYAAAKALRDERSWKAVEEMRKEYERRRNLVWKRLNEMGLPTVEPKGAFYIFPRIKDTGLSSKEFSELMLMEAKVAVVPGSAFGRAGEGYIRISYATAYEKLEEAMNRMEKVLKEKKLI	soluble
MGAQVSTQKTGAHETGLRASGNSIIHYTNINYYKDAASNSANRQDFTQDPGKFTEPVKDIMVKSLPALN	soluble
MIFINREREMKILEKEWENRPSFVVLYGRRRVGKTRLLREFSKAKKTFFFVFPEAIKEIQMREFKDAMADFLGDEFIRKLKTDNWFDLLKYLAEEVDDCLIVLDEFTYAVKSDRKILSDLQRVWDIILSEKKVMLVLSAPLLGMMWDEVLSHASPLYGRRTRSMHLKPLNYPDALNFFSDWEFGIRAYMLVGGIPSYLKLASRYNTIEDFLREEFLSDYGFFYDEPYVLLSEELRELRTYFSILIAIAEGNRRLERIANFVGLPARSIYPYVETLMRLGFIEKESPILGSRKVSLYRIKDPMLLTWLTLTYPQMAEISSGTAKLDKLYRVYSIRFEELAKEFLTLFRPIEFKTLGRWWYRGEEIDIVAIDEDIANLIEVKWMDLRKKEALRVLQELEEKAKKVNFSGKINLGIVARNVEKKEELRKEGYLVWDLEDILEAAGNSEREKLLEHHHHHH	not soluble
MGSDKIHHHHHHMWAYESVFYQIYPLGFCGAPFENDGVLEHRILKVNDWIPHIKKLGADAIYFSPVFESDTHGYNTRDYTKIDTRLGTNEDFAQVCDNLHKDGIKVVLDGVFNHVGRGFWAFQDVLKNRESSPYVNWFGRIAFDGNSNYNDGLWYEGWEGNYDLVKLNLRNEDVIQHIFSAIKGWVDEFDIDGLRLDVAYCLDHDFLRRLREFCDSLKPDFFLVGETLHGDYNQIMNDAMLHSVTNYECYKGLYSSFNSMNMFEINHSLLRQFGPEQWTLYKGKHLLSFVDNHDVTRVASILTNEKHLPLIYALAFGMPGIPCVYYGSEWGEKAKKEDGDPALRACFEAPQCNELTEWISKLAEAKKQSKALCYGNFYSVVLTNGQCVFGRECDGEKVFVCINAADQPFFAGFDMGKGDATDLITGEQVTLNGGLELPPYSAYFLR	not soluble
MTQEYQLRILPEIAANEQRLKEYISKEKGINLRNITATRILKRSIDARQRTIFVNLKVRAYINEMPKEDEFERTIYNNVEGKPQVIVVGAGPGGLFAALRLIELGLRPIIVERGKDVRERKKDLAQISREHTVDPESNYSFGEGGAGAYSDGKLYTRSKKRGNIDKILNVFCQHGASAAILADAHPHIGTDKLPRVIENMRNTIIECGGEVHFQTRMDALIIENNEIKGIETNTGKTFLGPVILATGHSARDVYRWLAANGVTIEAKGIAVGVRLEHPAMLIDQIQYHNKNGRGKYLPAAEYSFVTQAEGRGVYSFCMCPGGFIVPAASGPEQVVVNGMSPSNRGSRWSNSGMVVEIQPEDFISGELKMESGELAAQQNAQLLAINPLLSNSQLSTLKTQLTPLHFQEELERQCWLQGGRRQTAPAQRMLDFTRKKLSFDLPESSYSPGLISSPLHFWMPDFISKRLSLGFQQFGRTSHGFLTNEAVMIGVETRTSSPVRIVRDKETLQHVTVRGLFPCGEGAGYAGGIVSAGVDGERCAEAVANYINHLEHHHHHH	not soluble
MAHHHHHHMPDGQQQSAKCATQVQNGEEATRNTYPRRDDTKLHVGLDYSSFYLDTPYKIIKCMNKGSHFLYWGSDTLCGQSDQVTKEFKMNEMKKNNCEELRNSRFIFFDSQKKLLVLRYNIRKNSFNYVSDSDPIYVYFYQLHEKNFLDDNIIKENKNSLLIYPYTYVKIWESLTCYINEEVINKIEPVNKTFCSSFLEEEVEEEKKKKKGGTDLRREEEMNLCNQPYMFYSVIPRYPASKTYPKEGRVSGGSRHKKEDNVGVITAEGDGASSINMGGDGSGGINTEGDGSGGAGGINMEGDHPVDPDEPPNDHLDGA	not soluble
TEETNVLVLCAGGGTSGLLANALNKAAEEYGAPVKAAAGSYGAHREILDQYQLVILAPQVASNYEDMKAETDKLGIKLAKTEGAQYIGLTRDGKGALAFVEEQFKD	not soluble
MGQGANILGFGGDRSFNLAGNRAGFALGSNNGALVGGQRVGVDGGIGGGREGVEMGSQVQFGNEPNPGHPAGQFGSFMDNVKNFFSFLGRGMPMPPQQPPPSPPFSLGVTRPPTLIGTERSESENGGRHRPRPWFPEGEQIPEVTGEMRPKEGEAGISSSSSSSSETEFIGPNNGEIPRKSVEFSIDKEPREEFTEDLFTAQTSRPRELPGLIEFA	not soluble
MSGVRFPSGSLKDVRFFLHLFFSSKYGIIYVRYLDEEGTIMKQIIISVGREFGSGGHIVAQKLAEHYDIPIFNKELLEEMARKEGYSEKALEKYDEKPVNFGFMPLPYAGGNIPIEQEIAMKQFEFIKNKADAGESFVIVGRCADEILAYNPNLVSVFITGDRESKIARVMDREGLDRKQAINKMKRMDKIRKTYHNFYCRNKWGDSRGYDICINTGKTDFDTAKNMVVECVDKLKERSE	not soluble
MPAIKSSADLRNNYNEISTFCHNYPEPVFITKNGKGDLAVMSIEAYEGLTSRFELYSQIKEGMDDIATGNTRPFSEAMADIRSRRSRLEHHHHHH	not soluble
RGETIKGQFAVAEVILNRVQSERFPNTPCGVIRQGTGRKYQCQFTYTCDGRKEVIAEKQAYERVAKVARLAMDGAAESLTDGATYYHTTAVRPSWARRFTQTTKIGVHLFYRQGQRTASN	not soluble
MSQMAQSLRSQFATDKQVLQKFLNLDQKGMYQALYIWIDGSGENIRAKTRTFDFEPTDPEKLPIWNFDGSSTGQAEGADSDVYLKPVAIYPDPFRQGKNKLVMCETYDNKKKPTATNYRQRCKEVMEKAADQHPWFGMEQEYTLLDIDGHPFGWPKNGFPGPQGPYYCGVGANKVYGRDIVEAHYRACLYAGIQISGTNAEVMPGQWEFQVGPCEGIQMGDQLWVARYLLQRVAEEFGVIASFDCKPIKGDWNGAGCHTNFSTDKMRNPGGIDEIMSAINKLSLVHPQHIAYYDPHGGKDNERRLTGLHETASIDKFSYGVASRASSIRIPRSTDDDGYGYFEDRRPSSNCDPYTVTGALVRTVCLEGAERKLSMMYVPSQAPNITKH	not soluble
MTWQVQRRKWKLNLIAELESRVLAEPVPLPADPMELKNLEYRPVKVRGCFDHSKELYMMPRTMVDPVREAREGGLISSSTQSGAYVVTPFHCTDLGVTILVNRGFVPRKKVNPETRQKGQIEGEVDLIGMVRLTETRQPFVPENNPERNHWHYRDLEAMARITGAEPIFIDANFQSTVPGGPIGGQTRVTLRNEHLQYIVTWYGLSAATSYLWFKKFLRGTPGV	not soluble
